Measurements as given in PMC5193468.

T1: His-MBP-Lin28TT (Homo sapiens, UniProt Q9H9Z2 32-187)
T1 sequence: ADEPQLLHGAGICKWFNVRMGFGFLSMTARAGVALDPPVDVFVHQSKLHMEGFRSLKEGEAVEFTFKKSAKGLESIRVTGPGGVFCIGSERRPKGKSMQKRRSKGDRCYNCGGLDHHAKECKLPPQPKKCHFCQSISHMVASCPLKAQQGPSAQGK


Key:
[1] = molecular target: T1, His-MBP-Lin28TT; test: fluorescence anisotropy; 250 mM NaCl; 50 uM ZnCl2; FA: 20 nM 5'-fluorescein RNA, 20 mM Tris-HCl pH 7.5, 50-750 mM NaCl (100 mM for the main miR-363 Kd), 10 mM beta-mercaptoethanol, 50 uM ZnCl2, 0.01% Tween 20, 2
[2] = molecular target: T1, His-MBP-Lin28TT; test: fluorescence anisotropy; 750 mM NaCl; 50 uM ZnCl2; FA: 20 nM 5'-fluorescein RNA, 20 mM Tris-HCl pH 7.5, 50-750 mM NaCl (100 mM for the main miR-363 Kd), 10 mM beta-mercaptoethanol, 50 uM ZnCl2, 0.01% Tween 20, 2
[3] = molecular target: T1, His-MBP-Lin28TT; test: fluorescence anisotropy; 100 mM NaCl; 50 uM ZnCl2; FA: 20 nM 5'-fluorescein RNA, 20 mM Tris-HCl pH 7.5, 50-750 mM NaCl (100 mM for the main miR-363 Kd), 10 mM beta-mercaptoethanol, 50 uM ZnCl2, 0.01% Tween 20, 2
[4] = molecular target: T1, His-MBP-Lin28TT; test: fluorescence anisotropy; 500 mM NaCl; 50 uM ZnCl2; FA: 20 nM 5'-fluorescein RNA, 20 mM Tris-HCl pH 7.5, 50-750 mM NaCl (100 mM for the main miR-363 Kd), 10 mM beta-mercaptoethanol, 50 uM ZnCl2, 0.01% Tween 20, 2
[5] = molecular target: T1, His-MBP-Lin28TT; test: fluorescence anisotropy; 50 uM ZnCl2; FA: 20 nM 5'-fluorescein RNA, 20 mM Tris-HCl pH 7.5, 50-750 mM NaCl (100 mM for the main miR-363 Kd), 10 mM beta-mercaptoethanol, 50 uM ZnCl2, 0.01% Tween 20, 2

Binder	Kd [1]	Kd [2]	Kd [3]	Kd [4]	Kd [5]
GAUGCAAUUUUGAUGAGUAUCAUAGGAG (structured_RNA) [miR-363 19-46]	6.6 ± 0.9 nM	12.4 ± 1.1 nM	16.6 ± 1.9 nM	8 ± 0.8 nM	–
CGGGUCUAUGAUACCACCCGGUACAGGAG (structured_RNA) [let-7g 29-57]	–	–	–	–	54.1 ± 4.2 nM
